From the RNAGym collection of RNA variant scans (doi:10.7554/elife.80360) come the findings set out here.

First the molecules themselves.
B1: Twister Ribozyme (parent)
chain: AACACUGCCAAUGCCGGUCCCAAGCCCGGAUAAAAGUGGAGGGGGCGG

The variants in the series derive from B1. Description: self-cleavage, relative activity (ratio to wild type); higher = more cleavage; co-transcriptional.
Consider AACACUGCCAAUGCCGGUCCCAAGGACGGAUAAAAGUGGAGGGGGCGG [C25G C26A], for which the self-cleavage was determined as 0.0961.

With AACACUGCCAAUGCCGGUCCCUAGCCCGGAUAGAAGUGGAGGGGGCGG [A22U A33G], the self-cleavage worked out at 0.888.

As for AACAGUGCCAAUGCCGGUCCCAAGCCCGGAUCAAAGUGGAGGGGGCGG [C5G A32C], the self-cleavage worked out at 0.57.

As for AACACUGCCAAUGCCGGUGCCAAGCCCGGAUAAAACUGGAGGGGGCGG [C19G G36C], the self-cleavage was found to be 0.118.

For the variant AACACUGCCAAUGCCGGUCCCAAGCCCGGAUAAAAGUGCAGGGGACGG [G39C G45A], the self-cleavage was found to be 0.12.

Turning to AACACUGCCAAUGCCGGUCCCAAGCCCGGCUAAAAGUGGAGGGGGUGG [A30C C46U], the self-cleavage was 0.798.

With AACACUGCCAAUGCCGGUCCCAAGUCCGGAUAUAAGUGGAGGGGGCGG [C25U A33U], the self-cleavage stood at 0.822.

As for AACACUGCCAAUGCCGGUCCCAAGCCCGGAUAAAAAUGUAGGGGGCGG [G36A G39U], the self-cleavage amounted to 0.12.

For the variant AACACUGCCAAUGCCGUUCCCAAGCCCGGAUAAAAGUGGACGGGGCGG [G17U G41C], the self-cleavage was determined as 0.0885.

For the variant AACACUGCCAAUGCCGCUCCCAAGCCCGGUUAAAAGUGGAGGGGGCGG [G17C A30U], the self-cleavage amounted to 0.143.

With AACACUGCCAAUGCCGGGCCCAAGCCCGGAUAAAAGUGGAGGCGGCGG [U18G G43C], the self-cleavage worked out at 0.116.

With AACACUGCCAAUGCCGGUCCCAAGCACGGAUAAAAGUGGAGGGGACGG [C26A G45A], the self-cleavage was 0.258.

In the case of GACACUGCCAAUGCCGGUCCCAAGCCCGGAUAAAAGUGGAGGAGGCGG [A1G G43A], the self-cleavage stood at 0.176.

Regarding AACACUGCCAAUGCCCGUCCCAAGCCCGGAUAAAUGUGGAGGGGGCGG [G16C A35U], the self-cleavage turned out to be 0.577.

For UACACUGCCAACGCCGGUCCCAAGCCCGGAUAAAAGUGGAGGGGGCGG [A1U U12C], the self-cleavage was determined as 0.0693.

For the variant AACACUGCCAAUGCCUGUCCCAAGCCCGGAUAAAAGGGGAGGGGGCGG [G16U U37G], the self-cleavage was 0.409.

In the case of AACACGGCCGAUGCCGGUCCCAAGCCCGGAUAAAAGUGGAGGGGGCGG [U6G A10G], the self-cleavage was determined as 0.644.

In the case of AACACUGCCAAUGCCGGUCACAAACCCGGAUAAAAGUGGAGGGGGCGG [C20A G24A], the self-cleavage is 0.114.

As for AACACUGCCAAUGCCGGUCACAAGCCCGGAUAAAAGUGGAGGGGGUGG [C20A C46U], the self-cleavage was found to be 0.154.

Regarding AACACUGCCAAUGCCUGUCCCAAGCCCGGAUAAAAGUGGAGGGGGCGU [G16U G48U], the self-cleavage turned out to be 0.843.

Regarding AUCACUGCCAAUGCCGGUCCCAGGCCCGGAUAAAAGUGGAGGGGGCGG [A2U A23G], the self-cleavage was 0.0976.

Turning to AACACUGGCAAUGCCGGUCCCAAGCCCGGAUAAAAGUGUAGGGGGCGG [C8G G39U], the self-cleavage was 0.129.

Take AACACUGGCAAUGCCGGUCCCAAGCCCGGAGAAAAGUGGAGGGGGCGG [C8G U31G]: the self-cleavage came out at 0.464.

For the variant AACACUGCCAAUGCCGGUCCCAAGCCCGGCUAAAAGUCGAGGGGGCGG [A30C G38C], the self-cleavage turned out to be 0.732.

With AACACAGCUAAUGCCGGUCCCAAGCCCGGAUAAAAGUGGAGGGGGCGG [U6A C9U], the self-cleavage was 0.223.

As to AACACUGCCAAUCCCGGUCCCAAGCCCGGAUAAAACUGGAGGGGGCGG [G13C G36C], the self-cleavage came to 0.122.

AACACUGCCAAUGCCGGUCCCAAGCCCGGAUAACAGUGGAGGGUGCGG [A34C G44U]: the self-cleavage is 0.165.

As to AACACUGCCCAUGCCGGUCCAAAGCCCGGAUAAAAGUGGAGGGGGCGG [A10C C21A], the self-cleavage amounted to 0.124.

For AACGCUGCCAAUGCCGGUCCCAAGCCCGGAUAAAGGUGGAGGGGGCGG [A4G A35G], the self-cleavage was 0.525.

As to AACACUGCCAAUGCCGGUCCCCAGCCCGAAUAAAAGUGGAGGGGGCGG [A22C G29A], the self-cleavage is 1.01.

For the variant AACACUGACAAUGCCGGUCCCAAGCCCGGACAAAAGUGGAGGGGGCGG [C8A U31C], the self-cleavage came out at 0.652.

With AACACUGCCAAUGCCGGUCCCAAGGCCGGAUAAAAGUGGAGGGGACGG [C25G G45A], the self-cleavage stood at 0.132.

With AACACUGCCAAUGCCGGUCCCAAGCCCGGAUAGAAGUGGAGUGGGCGG [A33G G42U], the self-cleavage worked out at 0.17.

As to AAUACAGCCAAUGCCGGUCCCAAGCCCGGAUAAAAGUGGAGGGGGCGG [C3U U6A], the self-cleavage was 0.144.

With AACACUGCUAAUGCCAGUCCCAAGCCCGGAUAAAAGUGGAGGGGGCGG [C9U G16A], the self-cleavage worked out at 0.405.

As to AACACUGCCAAUGCGGGUCCCAAGCCCGGAUAAACGUGGAGGGGGCGG [C15G A35C], the self-cleavage amounted to 0.123.

Regarding AACACUGCCAAUGCCGGUCCCAAGCCCGGAUAAAAUUGUAGGGGGCGG [G36U G39U], the self-cleavage amounted to 0.147.

With AGCACUUCCAAUGCCGGUCCCAAGCCCGGAUAAAAGUGGAGGGGGCGG [A2G G7U], the self-cleavage came out at 0.0648.

Take AACACUGCCAAUGGCGGUCCCAAGCCCGGAAAAAAGUGGAGGGGGCGG [C14G U31A]: the self-cleavage was determined as 0.153.

For AACACUGCCAAUGGCGUUCCCAAGCCCGGAUAAAAGUGGAGGGGGCGG [C14G G17U], the self-cleavage amounted to 0.101.

On to AACACUGCCAAUGCCGGUCCCAAGCCGCGAUAAAAGUGGAGGGGGCGG [C27G G28C], for which the self-cleavage turned out to be 0.216.

On to AACACUGCCCAUGCGGGUCCCAAGCCCGGAUAAAAGUGGAGGGGGCGG [A10C C15G], for which the self-cleavage amounted to 0.0331.

Take AACACUGCCAUUGCCGGUCACAAGCCCGGAUAAAAGUGGAGGGGGCGG [A11U C20A]: the self-cleavage worked out at 0.178.

As for AACACUACCAAUGCCGGUCCCAAGCCCGGAUAAAAGUGGAGCGGGCGG [G7A G42C], the self-cleavage amounted to 0.258.

With AACACUGCCCAUGCCGGUCCCAAGCCCGGUUAAAAGUGGAGGGGGCGG [A10C A30U], the self-cleavage is 1.11.

Take UACACUGCCAAUGCCGGUCCCAAGCCCGGAUAAAAGUGAAGGGGGCGG [A1U G39A]: the self-cleavage was determined as 0.0588.

Take AACACUGCCAAUGCCGGUCCCAAGCCCGGAUGAAAGUGGAGGGGACGG [A32G G45A]: the self-cleavage was 0.921.

AACAAUGCCAAUGACGGUCCCAAGCCCGGAUAAAAGUGGAGGGGGCGG [C5A C14A]: the self-cleavage is 0.593.

AACACUGCCAAUGCCGGUCCCAAGCCCAGAUAAAAGUGGAGGGGGAGG [G28A C46A]: the self-cleavage worked out at 0.682.

Consider AACACUGCCAAUGCCGGUCCCAAGCCCGGAUAAAAGUUGCGGGGGCGG [G38U A40C], for which the self-cleavage was found to be 0.127.

AACACUGCCAAUGACGGUCCCAAGCCCGGAUAAAAGUGGAGGGGGCAG [C14A G47A]: the self-cleavage was 0.749.

In the case of AACACUGCCAAUGCAGUUCCCAAGCCCGGAUAAAAGUGGAGGGGGCGG [C15A G17U], the self-cleavage is 0.0769.

In the case of AACACUGCCAAUGCCGGCCCCAAGCCCGGAUAAAAGUCGAGGGGGCGG [U18C G38C], the self-cleavage was 0.523.

Regarding AACACUGCCAAUGCAGGUCCCAAGCCCGGUUAAAAGUGGAGGGGGCGG [C15A A30U], the self-cleavage stood at 0.89.
